Results: the supplement of paper PMC6755084

B1: minF1; a variant is named by its letters at N, in order (parent)
chain: GAGACCGCAACTGAAAAGTTGTTNNNNAANNNNGGNTNNATTTCTGCACGTAGAAGCAAAAGGC

Variants of: B1
Experiment: fraction ligated after 30 min (ligated reads / total reads); higher = more ligase activity
Conditions: with F1*subA RNA substrate (template-directed ligation), 42 °C
Protocol: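 Chip-synthesised pool of minF1 ligase ribozyme variants (single and double substitutions, single to quadruple deletions, bulge and P2 designed variants) was transcribed with T7 and reacted as a pool with excess substrate F1*subA for 30 min at 42 C in 50 mM EPPS pH 8.5, 25 mM MgCl2. Ligated and unligated RNAs were separated by PAGE, barcoded by RT and deep sequenced; fraction ligated = ligated reads / total reads, relative activity = FL / FL of wild-type minF1 (0.76); sequencing FL correlated with PAGE (R2 = 0.98). Sequences are the DNA template of the ribozyme.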

Variant	fraction ligated
GAGACCGCAACTGAAAAGTTGTTATCGAAATGGATGGTTATTTCTGCACGTAGAAGCAAAAGGC [ATCGATGGGTT G34A G35T T37G]	0.00178
GAGACCGCAACTGAAAAGTTGTTATGAAAGGTGGGTTGAATTTCTGCACGTAGAAGCAAAAGGC [ATGAGGTGTGA]	0.00168
GAGACCGCAACTGAAAAGTTGTTATCGAATGGATGGTTGATTTCTGCACGTAGAAGCAAAAGGC [ATCGTGGAGTG G34T]	0.0139
GAGACCGCAACTGAAAAGTTGTTATCGATGGATGGTTGAATTTCTGCACGTAGAAGCAAAAGGC [ATCGGGATTGA A29T]	0.00409
GAGACCGCAACTGAAAAGTTGTTATGAAATGGGGGTTGAATTTCTGCACGTAGAAGCAAAAGGC [ATGATGGGTGA]	0
GAGACCGCAACTGAAAAGTTGTTATCGAATGGTGGGTTGATTTCTGCACGTAGAAGCAAAAGGC [ATCGTGGTGTG]	0.00802
GAGACCGCAACTGAAAAGTTGTTATCGAATGGTGGGTTAATTTCTGCACGTAGAAGCAAAAGGC [ATCGTGGTGTA]	0.00478
GAGACCGCAACTGAAAAGTTGTTATGAAATGATGGGTTAATTTCTGCACGTAGAAGCAAAAGGC [ATGATGATGTA]	0.00247
GAGACCGCAACTGAAAAGTTGTTATGAAATGATGGGTTGATTTCTGCACGTAGAAGCAAAAGGC [ATGATGATGTG]	0.00639
GAGACCGCAACTGAAAAGTTGTTATCGAATGGATGGGTTATTTCTGCACGTAGAAGCAAAAGGC [ATCGTGGAGTT G34T T37G]	0.00145
GAGACCGCAACTGAAAAGTTGTTATCGAATGGGGGTTGAATTTCTGCACGTAGAAGCAAAAGGC [ATCGTGGGTGA]	0.00142
GAGACCGCAACTGAAAAGTTGTTATGAAATGGAGGGTTAATTTCTGCACGTAGAAGCAAAAGGC [ATGATGGAGTA]	0.00203
GAGACCGCAACTGAAAAGTTGTTATGAAATGGAGGGTTGATTTCTGCACGTAGAAGCAAAAGGC [ATGATGGAGTG]	0.00409
GAGACCGCAACTGAAAAGTTGTTATCGAAGGTGGGTTGAATTTCTGCACGTAGAAGCAAAAGGC [ATCGGGTGTGA]	0.00323
GAGACCGCAACTGAAAAGTTGTTATGAAATGGTGGTTGAATTTCTGCACGTAGAAGCAAAAGGC [ATGATGGTTGA]	0.00283
GAGACCGCAACTGAAAAGTTGTTATGAAAGGAGGGTTGAATTTCTGCACGTAGAAGCAAAAGGC [ATGAGGAGTGA]	0.00532
GAGACCGCAACTGAAAAGTTGTTATCGAATGATGGGTTGATTTCTGCACGTAGAAGCAAAAGGC [ATCGTGATGTG]	0.0261
GAGACCGCAACTGAAAAGTTGTTATCGAATGATGGGTTAATTTCTGCACGTAGAAGCAAAAGGC [ATCGTGATGTA]	0.00285
GAGACCGCAACTGAAAAGTTGTTATCGAATGGATGGGTTGTTTCTGCACGTAGAAGCAAAAGGC [ATCGTGGAGTT G34T T37G A40G]	0.00133
GAGACCGCAACTGAAAAGTTGTTATCGAATGTGGGTTGAATTTCTGCACGTAGAAGCAAAAGGC [ATCGTGTGTGA]	0.00325
GAGACCGCAACTGAAAAGTTGTTATCGATGGTGGGTTGAATTTCTGCACGTAGAAGCAAAAGGC [ATCGGGTGTGA A29T]	0.00298

Variant	fraction ligated
GAGACCGCAACTGAAAAGTTGTTATCGAAGGAGGGTTGAATTTCTGCACGTAGAAGCAAAAGGC [ATCGGGAGTGA]	0.00227
GAGACCGCAACTGAAAAGTTGTTATGAATGATGGGTTGAATTTCTGCACGTAGAAGCAAAAGGC [ATGAGATGTGA A29T]	0.00278
GAGACCGCAACTGAAAAGTTGTTATGAAGGATGGGTTGAATTTCTGCACGTAGAAGCAAAAGGC [ATGAGATGTGA A29G]	0.00416
GAGACCGCAACTGAAAAGTTGTTATGAAAGATGGGTTGAATTTCTGCACGTAGAAGCAAAAGGC [ATGAGATGTGA]	0.00646
GAGACCGCAACTGAAAAGTTGTTATCGAATGATGGTTGAATTTCTGCACGTAGAAGCAAAAGGC [ATCGTGATTGA]	0.00326
GAGACCGCAACTGAAAAGTTGTTATCGATGGATGGGTTAATTTCTGCACGTAGAAGCAAAAGGC [ATCGGGATGTA A29T]	0.00281
GAGACCGCAACTGAAAAGTTGTTATCGAAGGATGGTTGAATTTCTGCACGTAGAAGCAAAAGGC [ATCGGGATTGA]	0.00341
GAGACCGCAACTGAAAAGTTGTTATGAAATGGATGGTTAATTTCTGCACGTAGAAGCAAAAGGC [ATGATGGAGTA G34T]	0.00469
GAGACCGCAACTGAAAAGTTGTTATCGAAATGTGGGTTAATTTCTGCACGTAGAAGCAAAAGGC [ATCGATGTGTA]	0.00271
GAGACCGCAACTGAAAAGTTGTTATCGAAATGTGGGTTGATTTCTGCACGTAGAAGCAAAAGGC [ATCGATGTGTG]	0.00543
GAGACCGCAACTGAAAAGTTGTTATCGAAATGGTGGGTTGTTTCTGCACGTAGAAGCAAAAGGC [ATCGATGGGTT G34T T37G A40G]	0.00104
GAGACCGCAACTGAAAAGTTGTTATCGAATGAGGGTTGAATTTCTGCACGTAGAAGCAAAAGGC [ATCGTGAGTGA]	0.00262
GAGACCGCAACTGAAAAGTTGTTATCGAATGGAGGTTGAATTTCTGCACGTAGAAGCAAAAGGC [ATCGTGGATGA]	0.00177
GAGACCGCAACTGAAAAGTTGTTATCGAAATGGTGGTTGATTTCTGCACGTAGAAGCAAAAGGC [ATCGATGGGTG G34T]	0.00494
GAGACCGCAACTGAAAAGTTGTTATCGAAATGGAGGTTGATTTCTGCACGTAGAAGCAAAAGGC [ATCGATGGGTG G34A]	0.00444
GAGACCGCAACTGAAAAGTTGTTATGATGGATGGGTTGAATTTCTGCACGTAGAAGCAAAAGGC [ATGAGATGTGA A28T A29G]	0.016
GAGACCGCAACTGAAAAGTTGTTATCGAAATGGATGGTTGTTTCTGCACGTAGAAGCAAAAGGC [ATCGATGGGTT G34A G35T T37G A40G]	0.000298
GAGACCGCAACTGAAAAGTTGTTATGAATGGTGGGTTGAATTTCTGCACGTAGAAGCAAAAGGC [ATGAGGTGTGA A29T]	0.00679
GAGACCGCAACTGAAAAGTTGTTATCGAAATGTGGTTGAATTTCTGCACGTAGAAGCAAAAGGC [ATCGATGTTGA]	0.00239
GAGACCGCAACTGAAAAGTTGTTATCGATGGAGGGTTGAATTTCTGCACGTAGAAGCAAAAGGC [ATCGGGAGTGA A29T]	0.00273
